Reference: PMC9482650, “Quantitative fragmentomics allow affinity mapping of interactomes” (Nature Communications, 2022)

Tests used:
Test in all cases: holdup assay
Design in all cases: key: below the threshold = too weak to quantify, mostly under pKd 3.1 to 4
[1] = biological target: T1, PTPN13_1, Q12923
T1 sequence (Q12923 1088-1188, limits assumed, looked up): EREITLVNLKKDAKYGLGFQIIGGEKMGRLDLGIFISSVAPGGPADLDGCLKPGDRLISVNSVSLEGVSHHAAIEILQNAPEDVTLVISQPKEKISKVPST

[2] = biological target: FRMPD2_1, Q68DX3
[3] = biological target: T2, GRIP1_7, Q9Y3R0
T2 sequence (Q9Y3R0 999-1096, limits assumed, looked up): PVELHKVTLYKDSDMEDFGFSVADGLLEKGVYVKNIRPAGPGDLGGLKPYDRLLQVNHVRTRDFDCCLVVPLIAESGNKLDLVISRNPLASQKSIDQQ

[4] = biological target: T3, MPP2, Q14168
T3 sequence (Q14168 180-250, limits assumed, looked up): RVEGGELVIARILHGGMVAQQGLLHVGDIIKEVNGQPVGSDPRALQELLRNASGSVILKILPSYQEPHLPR

[5] = biological target: T4, APBA1_2, Q02410
T4 sequence (Q02410 742-832, limits assumed, looked up): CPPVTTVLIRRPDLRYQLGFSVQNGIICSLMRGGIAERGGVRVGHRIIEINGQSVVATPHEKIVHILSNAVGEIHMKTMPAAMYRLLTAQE

[6] = biological target: DLG1_2, Q12959
[7] = biological target: FRMPD2_2, Q68DX3
[8] = biological target: GRIP2_7, Q9C0E4
[9] = biological target: FRMPD4, Q14CM0
[10] = biological target: MAGI2_6, Q86UL8
[11] = biological target: LNX1_3, Q8TBB1
[12] = biological target: NHERF4_2, Q86UT5
[13] = biological target: SCRIB_3, Q14160
[14] = biological target: MAGI2_4, Q86UL8
[15] = biological target: PARD3_3, Q8TEW0
[16] = biological target: T5, GRIP1_4, Q9Y3R0
T5 sequence (Q9Y3R0 467-571, limits assumed, looked up): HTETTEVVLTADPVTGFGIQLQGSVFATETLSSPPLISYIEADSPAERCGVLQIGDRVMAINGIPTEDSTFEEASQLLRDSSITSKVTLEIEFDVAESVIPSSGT

[17] = biological target: T6, PDZD2_2, O15018
T6 sequence (O15018 329-429, limits assumed, looked up): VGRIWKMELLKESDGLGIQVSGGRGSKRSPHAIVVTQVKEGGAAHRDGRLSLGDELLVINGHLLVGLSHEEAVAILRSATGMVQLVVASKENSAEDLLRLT

[18] = biological target: T7, MPDZ_12, O75970
T7 sequence (O75970 1857-1958, limits assumed, looked up): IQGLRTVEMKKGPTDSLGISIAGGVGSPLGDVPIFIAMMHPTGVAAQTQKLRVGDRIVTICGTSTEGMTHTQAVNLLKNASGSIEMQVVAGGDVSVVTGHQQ

[19] = biological target: DLG4_2, P78352
[20] = biological target: T8, LIN7B, Q9HAP6
T8 sequence (Q9HAP6 88-185, limits assumed, looked up): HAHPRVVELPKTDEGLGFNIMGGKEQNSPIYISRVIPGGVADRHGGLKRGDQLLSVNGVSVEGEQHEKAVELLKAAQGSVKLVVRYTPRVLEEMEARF

[21] = biological target: NOS1, P29475
[22] = biological target: T9, NHERF3_4, Q5T2W1
T9 sequence (Q5T2W1 373-468, limits assumed, looked up): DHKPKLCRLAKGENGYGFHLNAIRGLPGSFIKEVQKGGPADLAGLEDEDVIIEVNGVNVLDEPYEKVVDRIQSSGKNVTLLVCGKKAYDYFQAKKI

[23] = biological target: GRID2IP_2, A4D2P6
[24] = biological target: AHNAK1, Q09666
[25] = biological target: T10, SNTG2, Q9NY99
T10 sequence (Q9NY99 68-166, limits assumed, looked up): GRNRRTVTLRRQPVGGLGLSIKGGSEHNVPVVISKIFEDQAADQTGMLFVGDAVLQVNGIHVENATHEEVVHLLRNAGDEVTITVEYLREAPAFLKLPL

[26] = biological target: T11, DLG3_3, Q92796
T11 sequence (Q92796 374-475, limits assumed, looked up): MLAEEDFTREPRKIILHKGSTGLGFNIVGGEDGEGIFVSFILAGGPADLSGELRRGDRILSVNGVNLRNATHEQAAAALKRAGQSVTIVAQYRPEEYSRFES

[27] = biological target: LIMK2, P53671
[28] = plain residues with an end cap or a label only (N-terminal biotin on a linker: ahx)
[29] = plain residues with an end cap or a label only (N-terminal biotin on a linker: ttds)

MAGI2_4, Q86UL8, sequence (Q86UL8 772-865): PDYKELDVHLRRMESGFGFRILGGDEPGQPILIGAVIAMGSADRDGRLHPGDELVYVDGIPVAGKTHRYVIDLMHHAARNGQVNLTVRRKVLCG
LNX1_3, Q8TBB1, sequence (Q8TBB1 500-596): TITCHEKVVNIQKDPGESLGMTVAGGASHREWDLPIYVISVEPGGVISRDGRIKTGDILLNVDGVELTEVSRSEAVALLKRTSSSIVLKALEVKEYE
DLG4_2, P78352, sequence (P78352 155-259): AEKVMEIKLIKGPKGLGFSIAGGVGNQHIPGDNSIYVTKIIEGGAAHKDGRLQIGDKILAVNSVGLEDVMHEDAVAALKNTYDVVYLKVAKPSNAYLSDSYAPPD
SCRIB_3, Q14160, sequence (Q14160 999-1103): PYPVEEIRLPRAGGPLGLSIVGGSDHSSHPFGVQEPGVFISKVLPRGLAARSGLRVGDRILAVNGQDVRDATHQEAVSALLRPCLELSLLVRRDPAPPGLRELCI
PARD3_3, Q8TEW0, sequence (Q8TEW0 582-685): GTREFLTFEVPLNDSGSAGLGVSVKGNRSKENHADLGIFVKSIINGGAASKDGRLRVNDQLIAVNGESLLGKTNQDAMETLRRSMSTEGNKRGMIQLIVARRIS
MAGI2_6, Q86UL8, sequence (Q86UL8 1141-1229): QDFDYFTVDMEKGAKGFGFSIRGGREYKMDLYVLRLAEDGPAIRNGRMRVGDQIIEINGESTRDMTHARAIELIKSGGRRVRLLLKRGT
LIMK2, P53671, sequence (P53671 143-248): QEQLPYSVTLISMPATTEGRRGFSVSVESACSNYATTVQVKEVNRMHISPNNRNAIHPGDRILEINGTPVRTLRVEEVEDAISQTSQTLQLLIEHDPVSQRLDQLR
FRMPD2_1, Q68DX3, sequence (Q68DX3 770-861): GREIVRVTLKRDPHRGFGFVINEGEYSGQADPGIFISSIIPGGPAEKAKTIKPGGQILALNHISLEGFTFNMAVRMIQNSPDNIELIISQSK
GRID2IP_2, A4D2P6, sequence (A4D2P6 272-370): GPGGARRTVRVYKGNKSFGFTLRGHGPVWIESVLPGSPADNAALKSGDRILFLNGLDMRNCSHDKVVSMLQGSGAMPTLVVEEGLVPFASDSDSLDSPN
GRIP2_7, Q9C0E4, sequence (Q9C0E4 934-1023): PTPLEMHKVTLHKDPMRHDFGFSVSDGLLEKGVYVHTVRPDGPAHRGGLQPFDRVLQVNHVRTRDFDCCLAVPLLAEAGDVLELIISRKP
DLG1_2, Q12959, sequence (Q12959 314-412): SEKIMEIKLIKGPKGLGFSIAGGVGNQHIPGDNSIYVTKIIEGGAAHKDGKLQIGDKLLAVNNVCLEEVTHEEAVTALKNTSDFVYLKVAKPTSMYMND
NHERF4_2, Q86UT5, sequence (Q86UT5 220-308): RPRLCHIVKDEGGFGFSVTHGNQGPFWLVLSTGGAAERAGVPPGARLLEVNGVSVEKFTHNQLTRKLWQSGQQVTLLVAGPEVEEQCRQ
FRMPD4, Q14CM0, sequence (Q14CM0 67-160): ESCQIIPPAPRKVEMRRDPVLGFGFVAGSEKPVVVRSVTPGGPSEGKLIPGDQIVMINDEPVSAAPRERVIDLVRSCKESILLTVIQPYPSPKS
AHNAK1, Q09666, sequence (Q09666 4-100): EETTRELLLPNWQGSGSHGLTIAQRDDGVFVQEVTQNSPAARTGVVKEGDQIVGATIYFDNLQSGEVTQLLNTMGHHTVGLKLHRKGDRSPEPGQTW
FRMPD2_2, Q68DX3, sequence (Q68DX3 944-1038): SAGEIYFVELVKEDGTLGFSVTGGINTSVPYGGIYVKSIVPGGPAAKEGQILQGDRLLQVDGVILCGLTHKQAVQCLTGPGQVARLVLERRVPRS
NOS1, P29475, sequence (P29475 9-101): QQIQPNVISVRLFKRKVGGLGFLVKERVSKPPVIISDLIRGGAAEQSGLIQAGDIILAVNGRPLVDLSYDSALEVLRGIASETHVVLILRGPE

SSSNSEDTEM [NHERF3, Q5T2W1]
pKd [1, 28]: below the threshold
pKd [2, 28]: below the threshold
pKd [3, 28]: below the threshold
pKd [4, 28]: below the threshold
pKd [5, 28]: below the threshold
pKd [6, 28]: below the threshold
pKd [7, 28]: below the threshold
pKd [8, 28]: below the threshold
pKd [9, 28]: below the threshold
pKd [10, 28]: below the threshold
pKd [11, 28]: below the threshold
pKd [12, 28]: below the threshold
pKd [13, 28]: below the threshold
pKd [14, 28]: below the threshold
pKd [15, 28]: below the threshold
pKd [16, 28]: below the threshold
pKd [17, 28]: below the threshold
pKd [18, 28]: below the threshold
pKd [19, 28]: below the threshold
pKd [20, 28]: below the threshold
pKd [21, 28]: below the threshold
pKd [22, 28]: below the threshold
pKd [23, 28]: below the threshold
pKd [24, 28]: below the threshold
pKd [25, 28]: below the threshold
pKd [26, 28]: below the threshold
pKd [27, 28]: below the threshold

RNCSTNDSLL [ADRB2, P07550]
pKd [1, 28]: below the threshold
pKd [2, 28]: below the threshold
pKd [3, 28]: 3.48
pKd [4, 28]: below the threshold
pKd [5, 28]: below the threshold
pKd [6, 28]: below the threshold
pKd [7, 28]: below the threshold
pKd [8, 28]: below the threshold
pKd [9, 28]: 3.64
pKd [10, 28]: below the threshold
pKd [11, 28]: below the threshold
pKd [12, 28]: below the threshold
pKd [13, 28]: below the threshold
pKd [14, 28]: 3.55
pKd [15, 28]: 3.79
pKd [16, 28]: below the threshold
pKd [17, 28]: below the threshold
pKd [18, 28]: below the threshold
pKd [19, 28]: below the threshold
pKd [20, 28]: below the threshold
pKd [21, 28]: below the threshold
pKd [22, 28]: 3.54
pKd [23, 28]: below the threshold
pKd [24, 28]: below the threshold
pKd [25, 28]: below the threshold
pKd [26, 28]: below the threshold
pKd [27, 28]: below the threshold

DPLTPSRSQL [DGKK, Q5KSL6]
pKd [1, 29]: below the threshold
pKd [2, 29]: below the threshold
pKd [3, 29]: below the threshold
pKd [4, 29]: below the threshold
pKd [5, 29]: 3.71
pKd [6, 29]: below the threshold
pKd [7, 29]: below the threshold
pKd [8, 29]: 3.64
pKd [9, 29]: below the threshold
pKd [10, 29]: below the threshold
pKd [11, 29]: below the threshold
pKd [12, 29]: below the threshold
pKd [13, 29]: 3.5
pKd [14, 29]: below the threshold
pKd [15, 29]: below the threshold
pKd [16, 29]: below the threshold
pKd [17, 29]: below the threshold
pKd [18, 29]: below the threshold
pKd [19, 29]: below the threshold
pKd [20, 29]: below the threshold
pKd [21, 29]: below the threshold
pKd [22, 29]: below the threshold
pKd [23, 29]: 4.1
pKd [24, 29]: below the threshold
pKd [25, 29]: 3.84
pKd [26, 29]: below the threshold
pKd [27, 29]: below the threshold

SPLHSLETSL [ATP2B1, P20020]
pKd [1, 29]: below the threshold
pKd [2, 29]: below the threshold
pKd [3, 29]: 3.58
pKd [4, 29]: below the threshold
pKd [5, 29]: 3.93
pKd [6, 29]: 4.67
pKd [7, 29]: 3.48
pKd [8, 29]: below the threshold
pKd [9, 29]: 4.45
pKd [10, 29]: 4.24
pKd [11, 29]: below the threshold
pKd [12, 29]: below the threshold
pKd [13, 29]: 5.54
pKd [14, 29]: 3.48
pKd [15, 29]: 3.82
pKd [16, 29]: below the threshold
pKd [17, 29]: below the threshold
pKd [18, 29]: below the threshold
pKd [19, 29]: 4.15
pKd [20, 29]: 4.22
pKd [21, 29]: 3.77
pKd [22, 29]: 3.94
pKd [23, 29]: 4.17
pKd [24, 29]: below the threshold
pKd [25, 29]: 4.66
pKd [26, 29]: 3.97
pKd [27, 29]: below the threshold
